Here are results for one molecule from patent US20250066490A1, “ANTI-CD70 ANTIBODIES, CONJUGATES THEREOF AND METHODS OF USING THE SAME” (ProfoundBio US Co., priority 2021, published 2025).

What is called Kd is the free concentration of one partner at which half of the binding sites on the other are occupied at equilibrium, for simple one-to-one binding.

Where two headings read alike, the source gives them in different places.

Data set [1] deals with 786-O, Caki-1, U251 and DBTRG-05MG cells. As to the kind of experiment: Antibody binding by flow cytometry, statements across all four tumor cell lines. More on the design: species or system human. The following applies: range over the four cell lines. On the procedure:
The lead antibodies were tested for binding to renal carcinoma cells and glioblastoma cells expressing CD70 on the cell surface by flow cytometry. Cell lines 786-O (ATCC® CRL-1932™, provided by COBIOER), Caki-1 (ATCC® HTB-46™, provided by COBIOER), U251 and DBTRG-05MG (ATCC® CRL-2020™, provided by COBIOER) were each tested for antibody binding. 786-O cells were cultured with RPMI 1640 medium (Gibco, Cat #11875093) containing of 10% FBS (Gibco, Cat #10099141) while Caki-1 cells were cultured with McCoy's 5a Modified medium (Gibco, Cat #16600082) containing 10% FBS. U251 cells were cultured with MEM medium containing of 10% FBS and 1% NEAA+1 mM sodium pyruvate. DBTRG-05MG cells were cultured with DMEM medium (Gibco, Cat #C11995500BT) containing of 10% FBS. Each of the lead antibodies and the controls were incubated for 30 mins with the different cell lines (3×10^5 cells per well) in 0.2 ml FACS buffer (1×PBS with 0.1% BSA) at 4° C. Then, the cells were pelleted, washed, and incubated at 4° C. for 30 mins with 100 μl of 1:200 diluted PE-conjugated anti human Fc (Abcam, Ab98596) in FACS buffer. The cells were pelleted again, washed with PBS, resuspended in FACS buffer and analyzed by flow cytometer (Beckman, CytoFLEX).

A further data set deals with Raji cells. Description: Internalization time course, Raji. The conditions noted are these: up to 4 hr, FIG. 13. Format: cell-based, human. On the procedure:
Four cell lines ([…]), Caki-1, Raji, MCF-7) were utilized in the internalization assay. Target (CD70) copy numbers were determined via the QIFIKIT (DAKO, K0078). Briefly, cells were labeled with a primary mouse monoclonal antibody against CD70. Cells, Set-up beads, Calibration beads (from the kit) were then labeled in parallel with a fluorescein-conjugated anti-mouse secondary antibody. The fluorescence is correlated with the number of bound primary antibody molecules on the cells and on the beads. Samples were subsequently analyzed on the flow cytometer and copy number determined based on the calibration curve (Table 11). For internalization assay, 3×10^5 cells were incubated at 4° C. for 30 min with 10 µg/ml 2E7 in FACS buffer (1×PBS containing 0.1% BSA). Cells were washed at 4° C. to remove unbound material and kept on ice or shifted to 37° C. for different lengths of time. At progressive timepoints ([…], 0.5, 1, 2, 3, 4 hr) cells were stained with PE-conjugated anti-human Fc for 30 min at 4° C. and analyzed by flow cytometry. Internalization rate were calculated by subtracting the mean fluorescence intensity (MFI) of cell surface-bound antibody at 37° C. at each time point from the MFI of cell surface-bound antibody at 4° C. at time 0, then divided by the MFI of the cell surface-bound antibody at 4° C. at time 0.

Data set [2] concerns the target T1, human CD70 extra-cellular domain (ECD) (Homo sapiens, UniProt P32970).
T1 construct: human, rat, or mouse CD70 extra-cellular domain (ECD) linked to His tag; His tag; purchased ACRO systems
T1 sequence (P32970 39-193 limits assumed): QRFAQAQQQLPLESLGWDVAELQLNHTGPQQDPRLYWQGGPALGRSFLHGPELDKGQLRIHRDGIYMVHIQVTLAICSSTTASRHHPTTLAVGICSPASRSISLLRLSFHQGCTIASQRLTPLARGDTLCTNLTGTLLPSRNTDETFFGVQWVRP
As to the kind of experiment: Biolayer interferometry (BLI), human CD70. In kind it is binding. The procedure:
Recombinant proteins consisting of human, rat, or mouse CD70 extra-cellular domain (ECD) linked to His tag was purchased (from ACRO systems). 69A7 and 2E7 (20 nM) were immobilized on anti-human IgG Fc biosensor tips (ForteBio). Binding assays using one concentration (100 nM) of recombinant protein in solution were performed using Octet RED (ForteBio). Association time was set at 180s and dissociation time was set at 300s. Binding affinity was calculated using ForteBio Data Acquisition 6.3 software. Affinity was derived by fitting the kinetic data to a 1:1 Langmuir binding model utilizing global fitting algorithms. […] Binding assays for 2E7 using multiple dilutions (from 200 nM down to 3.13 nM) of species' recombinant CD70 ECD proteins in solution were also performed using the same method.
(Biolayer interferometry detects binding as a change in optical thickness at a sensor tip.)

The test system of another data set is cyno CD70 ECD. As to the kind of experiment: Biolayer interferometry (BLI), cyno CD70. In kind it is binding.
The subject of data set [3] is CD70-negative cell line, MCF-7. Description: 2E7 binding by flow cytometry, MCF-7. The following applies: FIG. 12. The procedure:
Binding activity of 2E7 or the isotype control with a target cell line (Raji) or a cell line (MCF-7) that has negligible level of CD70 expression were evaluated by flow cytometry (Beckman, Cytoflex). 3×10^5 cells per well were seeded on a 96-well V-bottomed plate and incubated with 100 μl of 2E7 in serial dilutions. After 30 min incubation at 4° C., cells were washed twice with PBS, stained with 100 μl of 1:200 diluted PE-conjugated anti-human Fc in FACS buffer (1×PBS containing 1% BSA), then incubated at 4° C. for 30 min. Cells were finally washed two times with PBS and analyzed by flow cytometric analysis.
On the technique in general: A flow cytometer gives signals particle by particle.

Another data set in a line: 2E7 rat PK. In kind it is in vivo, Sprague Dawley rats. The conditions noted are these: intravenous infusion, 3 mg/kg, FIG. 14. The procedure: 2E7 was administered via intravenous infusion at 3 mg/kg to male Sprague Dawley rats (n=3 per group). Orbital blood was sampled from each rat at various time points post dosing. Circulating concentrations of 2E7 were analyzed by an ELISA assay (ProfoundBio) and calculated using the GraphPad Prism 6 software.

Where [4] appears, read: Hu CD70 100 nM, one concentration.

B1: 2E7: anti-CD70 antibody clone, VH SEQ 7 and VL SEQ 8; tested as scFv and full human IgG1/kappa (antibody, V domains shown)
VH: QVQLQESGPGLVKPSETLSLTCTVSGGSVSSDYYYWSWIRQPPGKGLEWLGYIYYSGSTNYNPSLKSRVTISVDTSKNQFSLKLRSVTTADTAVYYCARGDGDFLGVCFDYWGQGTLVTVSS
VL: EIVLTQSPATLSLSPGERATLSCRASQSVSSYLAWYQQKPGQAPRLLIFDASNRATGIPARFSGSGSGTDFTLTISSLEPEDFAVYYCQQRSNWPLTFGGGTKVEIK
modifications: Synthetic 2E7 VH amino acid sequence; Synthetic 2E7 VL amino acid sequence
notes: tested as scFv and full human IgG1/kappa
On to B1, for which the “EC50 relative to that of antibody 69A7” value in data set [1] is given as 1.8˜3.5 times. Further, the “internalization, time course” value in the data set with Raji cells was “rapid internalization”. Moreover, the Response in data set [2] (HU CD70 3.13 nM) was 0.1732; in data set [2] (HU CD70 6.25 nM), 0.2136; in data set [2] (HU CD70 12.5 nM) it was 0.3519; in data set [2] (HU CD70 25 nM), 0.5319; in data set [2] (HU CD70 50 nM), 0.6227; in data set [2] (HU CD70 100 nM, dilution series), 0.7695. The Response in data set [2] (HU CD70 200 nM) is given as 0.825; in data set [2] (setting [4]), 0.5157; with cyno CD70 ECD (CYNO CD70 3.13 nM) it was 0.1275; in the data set on cyno CD70 ECD (CYNO CD70 6.25 nM), 0.204; with cyno CD70 ECD (CYNO CD70 12.5 nM) it was 0.2927; with cyno CD70 ECD (CYNO CD70 25 nM) it was 0.3702. Further, the Response in the data set with cyno CD70 ECD (CYNO CD70 50 nM) came out at 0.4136; with cyno CD70 ECD (CYNO CD70 100 nM) it was 0.4825; with cyno CD70 ECD (CYNO CD70 200 nM), 0.4991. Further, the “ka” value in data set [2] (HU CD70, multiple dilutions 200-3.13 nM, global fit) was 314300 M⁻¹ s⁻¹; in data set [2] (setting [4]) it was 365000 M⁻¹ s⁻¹; in the data set with cyno CD70 ECD (CYNO CD70, multiple dilutions 200-3.13 nM, global fit) it was 617800 M⁻¹ s⁻¹. For the same molecule, the Kd in data set [2] (human CD70, multiple dilutions (200 nM down to 3.13 nM), read-out: KD) turned out to be 0.81 nM; in data set [2] (human CD70, one concentration (100 nM), read-out: equilibrium dissociation constant (KD)) it was 0.97 nM. Besides, in data set [3], the “binding to MCF-7” value is listed as “no binding”. In addition, the “plasma PK” value in “2E7 rat PK” is given as “stable plasma PK in rat that is characteristic of IgG1 antibodies”.
